What all share (experiment): cell_activity; CHO iGFFP reporter
One data set deals with T1, LOX 3-4m.1973 (artificial (I-CreI derived)).
T1 chain: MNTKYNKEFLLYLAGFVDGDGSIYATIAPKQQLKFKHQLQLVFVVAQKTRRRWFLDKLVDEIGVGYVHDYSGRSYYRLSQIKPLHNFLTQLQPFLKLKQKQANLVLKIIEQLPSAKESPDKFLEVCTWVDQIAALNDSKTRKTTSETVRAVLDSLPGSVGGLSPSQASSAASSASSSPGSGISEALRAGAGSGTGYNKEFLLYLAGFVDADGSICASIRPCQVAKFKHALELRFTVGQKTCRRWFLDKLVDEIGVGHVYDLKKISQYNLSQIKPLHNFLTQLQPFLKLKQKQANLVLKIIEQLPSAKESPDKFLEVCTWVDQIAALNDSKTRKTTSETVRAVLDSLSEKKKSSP
An excerpt: (§1) A CHO cell reporter system (see WO/2012/167192, FIG. 3) was used to determine whether the engineered meganucleases generated in these studies could recognize and cleave the modified LOX 3-4 recognition sequences in Table 87. To perform the assay, a pair of CHO cell reporter lines were produced, which carried a non-functional Green Fluorescent Protein (GFP) gene expression cassette integrated into the genome of the cell. The GFP gene in each cell line was interrupted by a pair of recognition sequences such that intracellular cleavage of either recognition sequence by a meganuclease would stimulate a homologous recombination event resulting in a functional GFP gene. In both cell lines, one of the recognition sequences was derived from the LOX 3-4 recognition sequence (i.e., those sequences disclosed in Table 87), and the second recognition sequence was specifically recognized by a control meganuclease called “CHO 23/24.” CHO reporter cells comprising a recognition sequence derived from the LOX 3-4 recognition sequence and the CHO 23/24 recognition sequence are referred to herein as “test cells.”
(§2) Novel engineered meganucleases derived from the LOX 3-4x.109 meganuclease were prepared by making amino acid substitutions at one or more positions in the first subunit and one or more positions in the second subunit. The N-terminal subunit recognizes the reverse complement of the AG portion of the four base pair center sequence, which is CT, and the C-terminal subunit recognizes the GC portion of the […] center sequence. These engineered meganucleases were then evaluated for cleavage of the LOX 3-4 recognition sequence modified to have a TTGG center sequence (SEQ ID NO: 248) in the CHO reporter assay according to Example 1. The substitutions in each subunit are provided in Tables 177 and 178, respectively.

The next data set addresses T2, LOX 3-4m.1981 (artificial (I-CreI derived)).
T2 chain: T1 chain with K239S, C241R, H257Y, K262G, K263S, I264V, K330R
Source text: as §1, §2

A further data set has as its target T3, LOX 3-4m.2045 (artificial (I-CreI derived)).
T3 chain: T1 chain with K239S, C241R, H257Y, K262G, K263R, H276R, K330R
Source text: as §1, §2

For another data set, the target named is T4, LOX 3-4m.1970 (artificial (I-CreI derived)).
T4 chain: T1 chain with H257Y, K262G, K263Q, K330R
Source text: as §1, §2

A further data set addresses T5, LOX 3-4m.2229 (artificial (I-CreI derived)).
T5 chain: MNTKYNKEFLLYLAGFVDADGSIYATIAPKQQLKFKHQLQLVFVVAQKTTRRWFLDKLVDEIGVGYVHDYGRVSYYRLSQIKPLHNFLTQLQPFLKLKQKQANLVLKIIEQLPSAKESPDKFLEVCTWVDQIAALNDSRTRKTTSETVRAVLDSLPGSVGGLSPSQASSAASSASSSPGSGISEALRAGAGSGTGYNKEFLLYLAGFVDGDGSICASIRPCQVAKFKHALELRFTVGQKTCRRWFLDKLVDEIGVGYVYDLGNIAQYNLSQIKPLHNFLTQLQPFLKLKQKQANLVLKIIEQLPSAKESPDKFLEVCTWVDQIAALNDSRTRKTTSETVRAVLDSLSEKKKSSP
Source text: as §1
(§3) Novel engineered meganucleases derived from the LOX 3-4x.109 meganuclease were prepared by making amino acid substitutions at one or more positions in the first subunit and one or more positions in the second subunit. These engineered meganucleases were then evaluated for cleavage of the LOX 3-4 recognition sequence modified to have a TCAA center sequence (SEQ ID NO: 331) in the CHO reporter assay according to Example 1.

Another data set concerns the target T6, LOX 3-4m.2189 (artificial (I-CreI derived)).
T6 chain: T5 chain with T50R, R72S, Q80E, R139K, N263R, Q271E
Source text: as §1, §3

A further data set concerns the target T7, LOX 3-4m.2165 (artificial (I-CreI derived)).
T7 chain: T5 chain with A19S, K48S, T50R, G71R, R72S, Q80E, R139K, K239S, C241R, N263Q
Source text: as §1, §3

For the next data set, the target named is T8, LOX 3-4m.2157 (artificial (I-CreI derived)).
T8 chain: T5 chain with A19S, K48S, T50R, R72S, Q80E, R139K, K239S, C241K, N263R
Source text: as §1, §3

Another data set deals with T9, LOX 3-4m.2125 (artificial (I-CreI derived)).
T9 chain: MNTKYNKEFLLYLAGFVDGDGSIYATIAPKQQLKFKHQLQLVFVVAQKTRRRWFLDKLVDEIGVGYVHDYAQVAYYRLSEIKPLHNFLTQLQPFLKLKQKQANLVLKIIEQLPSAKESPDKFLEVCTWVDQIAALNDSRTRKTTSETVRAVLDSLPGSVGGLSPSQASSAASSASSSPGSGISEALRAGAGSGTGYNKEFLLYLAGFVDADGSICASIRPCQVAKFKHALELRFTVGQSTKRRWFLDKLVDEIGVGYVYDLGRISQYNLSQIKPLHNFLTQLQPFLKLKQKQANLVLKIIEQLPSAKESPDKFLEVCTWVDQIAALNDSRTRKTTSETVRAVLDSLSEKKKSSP
Source text: as §1
(§4) Novel engineered meganucleases derived from the LOX 3-4x.109 meganuclease were prepared by making amino acid substitutions at one or more positions in the first subunit and one or more positions in the second subunit. These engineered meganucleases were then evaluated for cleavage of the LOX 3-4 recognition sequence modified to have a TTAA center sequence (SEQ ID NO: 341) in the CHO reporter assay according to Example 1. The substitutions in each subunit are provided in Tables 174 and 175, respectively.

A further data set concerns the target T10, LOX 3-4m.2145 (artificial (I-CreI derived)).
T10 chain: T5 chain with A19G, K48N, T50R, R72T, G210A, N263K, A265S
Source text: as §1, §4

For the next data set, the target named is T11, LOX 3-4m.2151 (artificial (I-CreI derived)).
T11 chain: T5 chain with A19G, T50S, R72S, G210A, K239T, C241K, N263R, I264V
Source text: as §1, §4

A further data set addresses T12, LOX 3-4m.2142 (artificial (I-CreI derived)).
T12 chain: T9 chain with G19S, K48S, A71N, Q72N, A210G, K241R, R263K
Source text: as §1, §4

Changes are numbered by the printed parent chain.

B1: LOX 3-4 TTGG (dsDNA)
DNA 1: GTATAGCATTTGGTATACGAAG
DNA 2: CTTCGTATACCAAATGCTATAC
Consider B1, for which the activity in the data set with LOX 3-4m.1973 was 14.3 % GFP; with LOX 3-4m.1981, 13.5 % GFP; in the data set with LOX 3-4m.2045, 14.2 % GFP; with LOX 3-4m.1970 it was 13.5 % GFP.

B2: LOX 3-4 TCAA (dsDNA)
DNA 1: GTATAGCATTCAATATACGAAG
DNA 2: CTTCGTATATTGAATGCTATAC
Take B2: the activity is 11.8 % GFP with LOX 3-4m.2229, 11.7 % GFP with LOX 3-4m.2189, 10.3 % GFP with LOX 3-4m.2165 and 9.79 % GFP with LOX 3-4m.2157.

B3: LOX 3-4 TTAA (dsDNA)
DNA 1: GTATAGCATTTAATATACGAAG
DNA 2: CTTCGTATATTAAATGCTATAC
With B3, the activity with LOX 3-4m.2125 was determined as 12.7 % GFP; in the data set with LOX 3-4m.2145 it was 12.9 % GFP; in the data set with LOX 3-4m.2151, 13 % GFP; with LOX 3-4m.2142, 13.9 % GFP.

Values taken from patent US20220195407, “OPTIMIZATION OF ENGINEERED MEGANUCLEASES FOR RECOGNITION SEQUENCES” (Precision BioSciences, Inc., published 2022).
